The source of these data is article PMC7110144, “Structural basis for centromere maintenance by Drosophila CENP‐A chaperone CAL1” (The EMBO Journal, 2020).

To fix the notation:
B2: CENP-C(1264-1411) (domain or fragment, Drosophila melanogaster, UniProt Q9VHP9 1264-1411, looked up)
chain: GPVVFSTPLRDEQEEASTKLMQWLRGVGDAPPSASMSDENASVSSANELIFCQVDGIDYAFYNTKEKAMLGYMRFKPYQKRSMKQAKVHPLKLLVQFGEFNVETLAVGEEKEVHSVLRVGDMIEIDRGTRYSIQNAIDKVSVLMCIRS
notes: also called CENP-C cupin domain; source: E. coli Rosetta (DE3), purified; tag removed with 3C, SEC; not shown: His, N-terminal, cleaved
B3: His-CENP-C(1264-1411) (domain or fragment)
chain: GPVVFSTPLRDEQEEASTKLMQWLRGVGDAPPSASMSDENASVSSANELIFCQVDGIDYAFYNTKEKAMLGYMRFKPYQKRSMKQAKVHPLKLLVQFGEFNVETLAVGEEKEVHSVLRVGDMIEIDRGTRYSIQNAIDKVSVLMCIRS
notes: vector pEC-K-3C-His; also called CENP-C cupin domain; source: E. coli Rosetta (DE3), purified (HisTrap, SEC); not shown: His, N-terminal, kept

The target in data set [1] is T1, His-CAL1(1-160) (Drosophila melanogaster, UniProt Q9VEN2 1-160).
T1 construct: CAL1, Drosophila melanogaster, residues 1-160; In crystal form I only CAL1 residues 17-47 were seen; the authors conclude that CAL1 was proteolytically cleaved during crystallisation; also called His-CAL1(1-160 WT); source: E. coli BL21 (DE3) Gold, purified (HisTrap native or Ni-NTA denaturing; SEC); not shown: His, N-terminal, kept
T1 sequence (looked up): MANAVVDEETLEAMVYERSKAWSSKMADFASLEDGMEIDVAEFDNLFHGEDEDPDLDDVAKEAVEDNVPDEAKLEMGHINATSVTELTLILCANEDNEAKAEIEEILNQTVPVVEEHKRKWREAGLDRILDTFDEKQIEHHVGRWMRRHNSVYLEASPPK
Put plainly: crystal structure; crystal form II; complex in 20 mM Tris-HCl pH 8.0, 1 M NaCl, 2 mM DTT; lithium sulphate, 0.1 M Tris pH 8.5, PEG 4000; anisotropic diffraction. The note with it: both partners purified.

The target of data set [2] is T2, H4 (Drosophila melanogaster, UniProt P84040 1-103).
T2 construct: histone H4, Drosophila melanogaster (dm H4); plasmid pET22b H4, gift of Karolin Luger; also called histone H4; dm H4
The description is as above. The note with it: both partners purified.

Data set [3] concerns the molecule itself. Put plainly: SEC-MALS; Superdex 75 increase 10/300 GL, 50 mM HEPES pH 8.0, 100 mM NaCl, 1 mM TCEP, 4°C.
Data set [4] deals with T3, His-CAL1(1-160-LL-841-979)/CENP-A(101-225)/H4 (Drosophila melanogaster, UniProt Q9VEN2 1-160; Q9VEN2 841-979; Q9V6Q2 101-225; P84040 1-103).
T3 construct: CAL1, Drosophila melanogaster, residues 1-160; flexible linker (LL) in place of residues 161-840; histone H4, Drosophila melanogaster (dm H4); plasmid pET22b H4; not shown: His, N-terminal, kept; copies: + +
Put plainly: SEC; refolded His-CAL1(1-160-LL-841-979)/CENP-A(101-225)/H4 alone or mixed with 1.2 molar excess of His-CENP-C(1264-1411); Superdex 200 increase 10/300, 20 mM Tris-HCl pH 8.0, 100 mM NaCl, 2 mM DTT. The note with it: both partners purified. Background: Size exclusion chromatography separates by hydrodynamic size, large species first.

Data set [5] deals with T4, CENP-A-GFP-LacI (in U2OS cells) (Drosophila melanogaster, UniProt Q9V6Q2 1-225).
T4 construct: CENP-A (CID), Drosophila melanogaster; source: U2OS cells with a LacO array, transfected (pN2-CMV vector), in cells; not shown: GFP, C-terminal, kept; LacI, C-terminal, kept
T4 sequence (looked up): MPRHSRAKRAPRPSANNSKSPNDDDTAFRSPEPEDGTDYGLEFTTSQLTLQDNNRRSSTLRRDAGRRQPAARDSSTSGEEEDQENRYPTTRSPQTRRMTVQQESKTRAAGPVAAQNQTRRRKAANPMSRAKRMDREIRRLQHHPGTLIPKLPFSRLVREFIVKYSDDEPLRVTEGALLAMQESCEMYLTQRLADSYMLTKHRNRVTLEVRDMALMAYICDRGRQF
Put plainly: LacO/LacI tethering assay (recruitment seen by immunofluorescence); human U2OS cells with a LacO array; GFP-LacI fusion tethered, recruitment of co-transfected CAL1-V5 measured at the LacO spot. The note with it: partners not purified.

Data set [6] addresses T1, His-CAL1(1-160). As to the kind of experiment: cross-linking; gel-filtered complex dialysed into PBS; EDC/sulpho-NHS 1.5 h or BS3 2 h at RT; gel bands digested with trypsin, LC-MS/MS. As to conditions: both partners purified.
Data set [7] addresses T2, H4. As to the kind of experiment: crystal structure; crystal form I; complex at 27 mg/ml in 20 mM Tris-HCl pH 8.0, 1 M NaCl, 5 mM DTT; 0.01 M cobalt(II) chloride, 0.1 M MES pH 6.5, 1.8 M ammonium sulphate, 18°C; crystals after about a year. As to conditions: both partners purified.
Data set [8] has as its target T5, CENP-A(101-225)-H4 (Drosophila melanogaster, UniProt Q9V6Q2 101-225; P84040 1-103).
T5 construct: histone H4, Drosophila melanogaster (dm H4); plasmid pET22b H4, gift of Karolin Luger; also called CENP-A/H4; CENP-A/H4 complex
As to the kind of experiment: pull-down; His-CAL1(1-160) WT or mutant mixed with 1.3 times molar excess of CENP-A(101-225)-H4 and captured on Ni-NTA resin; 20 mM Tris-HCl pH 8.0, 2 M NaCl, 10% glycerol, 0.5% NP40, 35 mM imidazole, 2 mM βME, 30 min at 4°C; Coomassie-stained SDS-PAGE. The note with it: both partners purified.

The data set “CENP-C(1264-1411)” has as its target B2. As to the kind of experiment: AUC; sedimentation velocity (49 k rpm) and sedimentation equilibrium (26 k rpm), 4°C; untagged proteins and SEC purified untagged complex; a range of concentrations, up to 10 mg/ml. The note with it: both partners purified.
In the data set “His-CENP-C(1264-1411)” the target is B3. As to the kind of experiment: SEC; refolded His-CAL1(1-160-LL-841-979)/CENP-A(101-225)/H4 alone or mixed with 1.2 molar excess of His-CENP-C(1264-1411); Superdex 200 increase 10/300, 20 mM Tris-HCl pH 8.0, 100 mM NaCl, 2 mM DTT. The note with it: both partners purified.
The target of data set [9] is T5, CENP-A(101-225)-H4. Described as above. The note with it: both partners purified.

B1: CENP-A(144-225) (domain or fragment, Drosophila melanogaster, UniProt Q9V6Q2 144-225, looked up)
chain: PGTLIPKLPFSRLVREFIVKYSDDEPLRVTEGALLAMQESCEMYLTQRLADSYMLTKHRNRVTLEVRDMALMAYICDRGRQF
B1: the binding result with His-CAL1(1-160) [1] and with H4 [2] was “binds” in each case.
As a reminder, the stoichiometry N is the number of molecules, sites or subunits per partner or assembly. Regarding B2, in data set [3], the “stoichiometry N” value stood at 2.
Regarding B3, in data set [4], the binding result is given as “binds”.

B4: CAL1(F43R)-V5 (in U2OS cells) (natural protein, Drosophila melanogaster, UniProt Q9VEN2 1-979, looked up)
chain: MANAVVDEETLEAMVYERSKAWSSKMADFASLEDGMEIDVAERDNLFHGEDEDPDLDDVAKEAVEDNVPDEAKLEMGHINATSVTELTLILCANEDNEAKAEIEEILNQTVPVVEEHKRKWREAGLDRILDTFDEKQIEHHVGRWMRRHNSVYLEASPPKYLPPHHNSISDESDESMHSIDTARYIQQSRRRNAHMTNKNMTTIKMYRKHSHKRDELRAKYAYGDEQEHRHHMQAVLLRRRERERQLAYLASTPMQCVYSSGHHMRRKNLRKRRINSWMFDSASSSEEDTSFGGCDCHSCRRHYALSRSVYQSCPYGRGQREYHHRQMASRTMHTMRRQHTFDMEMDLRPRLPENECSCCNSDRLCSNVIHIANSSTEEWVVENRSNHLTQETQEKTRKQKHQPMDARKVSHQPVCSKGHEQKPLSSKATSVSKLVLSKEKYMQMFDSESSDEDNALAKKGLLCCSDKKKGMTFPTPNAAGKITHPTSSAKKAIRKEARPNGLAQIQEEGPTATNSPIESTYLPVAHMKSVSIDGSSGTSATFESPAKKAPKRGIRETSPLNGNELQQLISTIPIADEKASSLMEKVDNCIGRESFDDRNKDFMHMENSSTKTAVEKSTKQKRVSGKKSEIPKSIITNNEILEKNSTETLSEKQVAAKAKKQSVRKTGATGKPSTSRLKKSEKTKTTSSVTSTSKLEQVREEESDVSSEVLAKPKPQCSTTASILKQGGDGASNSEDDLQIALAMSKATYKEEQQKRKKTKREPSNKQPQSPAEKSMTVFNNQSVACNSTALANDTACYRVLPKRRGVKRAAAVSTTEEKTATNSSSSPTSSLEEMGSPTGGDPDCTVVTSTTGCEPPASERQEIPATIKITKRGILLHSPSAPEGASFTLTEQGLGKIIGERWARKYLKYHIGSRSFDSRHSVYYQPTPQLAAALSAPQDAQNIGNISGSSASDDDIFEQINRYGTVYSILENNSGDK
notes: CAL1, Drosophila melanogaster; non-codon-optimised; source: U2OS cells with a LacO array, transfected, in cells; not shown: V5, C-terminal, kept
B4: the “fold change of recruitment against CAL1 WT” value in [5] stood at 3 fold less than CAL1 WT.

B5: CENP-A(101-225) (domain or fragment, Drosophila melanogaster, UniProt Q9V6Q2 101-225, looked up)
chain: QQESKTRAAGPVAAQNQTRRRKAANPMSRAKRMDREIRRLQHHPGTLIPKLPFSRLVREFIVKYSDDEPLRVTEGALLAMQESCEMYLTQRLADSYMLTKHRNRVTLEVRDMALMAYICDRGRQF
notes: also called CID; histone fold domain of CENP-A
With B5, the binding result in the data set with His-CAL1(1-160) [6] and in the data set with H4 [7] was “binds” each time.

B6: His-CAL1(1-160) F43R (domain or fragment)
chain: MANAVVDEETLEAMVYERSKAWSSKMADFASLEDGMEIDVAERDNLFHGEDEDPDLDDVAKEAVEDNVPDEAKLEMGHINATSVTELTLILCANEDNEAKAEIEEILNQTVPVVEEHKRKWREAGLDRILDTFDEKQIEHHVGRWMRRHNSVYLEASPPK
notes: CAL1, Drosophila melanogaster, residues 1-160, codon optimised; source: E. coli, recombinant, purified; not shown: His, N-terminal, kept
Take B6: the binding result in the data set with CENP-A(101-225)-H4 [8] is on record as “binds”.

B7: CAL1(841-979) (domain or fragment, Drosophila melanogaster, UniProt Q9VEN2 841-979, looked up)
chain: GGDPDCTVVTSTTGCEPPASERQEIPATIKITKRGILLHSPSAPEGASFTLTEQGLGKIIGERWARKYLKYHIGSRSFDSRHSVYYQPTPQLAAALSAPQDAQNIGNISGSSASDDDIFEQINRYGTVYSILENNSGDK
notes: only residues 890-913 are seen in the structure; source: E. coli BL21 (DE3) Gold, purified; not shown: His6, N-terminal, cleaved; SUMO, N-terminal, cleaved
For the molecule B7, the “stoichiometry N” value with CENP-C(1264-1411) was 1 CAL1 per CENP-C dimer (2:1 CENP-C:CAL1).

B8: His-CAL1(1-160-LL-841-979) (domain or fragment, Drosophila melanogaster)
chain: MANAVVDEETLEAMVYERSKAWSSKMADFASLEDGMEIDVAEFDNLFHGEDEDPDLDDVAKEAVEDNVPDEAKLEMGHINATSVTELTLILCANEDNEAKAEIEEILNQTVPVVEEHKRKWREAGLDRILDTFDEKQIEHHVGRWMRRHNSVYLEASPPKGSSGGSSGGGDPDCTVVTSTTGCEPPASERQEIPATIKITKRGILLHSPSAPEGASFTLTEQGLGKIIGERWARKYLKYHIGSRSFDSRHSVYYQPTPQLAAALSAPQDAQNIGNISGSSASDDDIFEQINRYGTVYSILENNSGDK
notes: CAL1, Drosophila melanogaster, residues 1-160; flexible linker (LL) in place of residues 161-840; not shown: His, N-terminal, kept
Turning to B8, the binding result in the data set with His-CENP-C(1264-1411) and in the data set with CENP-A(101-225)-H4 [9] was “binds” in each case.
